Patent US20220282217A1 (BIONTECH US, published 2022)

Legend:
[1] = biological target: T1, HLA-A03.01 (human); experiment: competition with radiolabeled reference peptide, purified MHC I
T1 construct: Purified class I MHC
Procedure: (§1) Peptides were incubated at varying concentrations with these complexes for 2 days, and the amount of remaining radiolabeled peptide bound to […] was measured using size exclusion gel-filtration.

[2] = biological target: T2, HLA-A03.01 (human); experiment: competition vs radiolabeled reference peptide on purified MHC I, gel filtration
T2 construct: As for HLA-A02.01
Procedure: as §1

[3] = biological target: T3, HLA-B08.01 (human); experiment: pMHC-I complex dissociation at 37 C, 125I-b2m, half-life
T3 construct: As for HLA-A02.01
Procedure: (§2) Briefly, synthetic genes encoding biotinylated MHC-I heavy and light chains are expressed in E. coli and purified from inclusion bodies using standard methods. […] These reactions are carried out in streptavidin coated microplates to bind the biotinylated MHC-I heavy chains to the surface and allow measurement of radiolabeled light chain to monitor complex formation. Dissociation is initiated by addition of higher concentrations of unlabeled light-chain and incubation at 37° C. Stability is defined as the length of time in hours it takes for half of the complexes to dissociate, as measured by scintillation counts.

[4] = biological target: T4, HLA-A02.01 (human); experiment: competition with radiolabeled reference peptide, purified MHC I
T4 construct: Purified class I MHC
Procedure: as §1

[5] = biological target: T4, HLA-A02.01; experiment: pMHC-I dissociation half-life, 125I-b2m
Procedure: as §2

[6] = biological target: HLA-A02.01 (human); experiment: competition vs radiolabeled reference peptide on purified MHC I, gel filtration
Procedure: as §1

[7] = biological target: HLA-A02.01 (human); experiment: pMHC-I complex dissociation at 37 C, 125I-b2m, half-life
Procedure: as §2

## KRVNTAWKTK (also called TFAM(+1))
[1]
  IC50: 332 nM

## TTLNSPPLK (also called β2M, . . ; MPAV)
[2]
  IC50: 9.8 nM

## SVCFFFFSV (also called CNOT1(+1))
[3]
  Stability (T1/2 (h)): 0 h

## LLAFWDSQV (also called TP53, AAVG)
[4]
  IC50: 68 nM
[5]
  Stability (T1/2 (h)): 12.8 h

## SLQPPPPGFK (also called C15ORF40(+1))
[2]
  IC50: 19 nM

## LQSLPRFILM (also called ALK, L1196M)
[3]
  Stability (T1/2 (h)): 0 h

## VQLIMQLMPF (also called EGFR, T790M)
[3]
  Stability (T1/2 (h)): 0 h

## LFFFFFETK (also called C15ORF40(+1))
[2]
  IC50: 413 nM

## RVNTAWKTKK (also called TFAM(+1))
[1]
  IC50: 2.3 nM

## MQLMPFGCL (also called EGFR, T790M)
[3]
  Stability (T1/2 (h)): 0 h

## RMKVPLMK (also called FAM111B(-1))
[2]
  IC50: 33 nM

## KLFSCLSFLS (also called C15ORF40(+1))
[6]
  IC50: 0.6 nM
[2]
  IC50: 104 nM

## RVNTAWKTK (also called TFAM(+1))
[1]
  IC50: 8.6 nM

## QLIMQLMPF (also called EGFR, T790M)
[3]
  Stability (T1/2 (h)): 0 h

## SLPRFILMEL (also called ALK, L1196M)
[3]
  Stability (T1/2 (h)): 0 h

## LTINKEEAL (also called BCR: ABL (e13a2, aka b2a2))
[3]
  Stability (T1/2 (h)): 0 h

## HLQLKSCRRK (also called SMAP1(-1))
[1]
  IC50: 96.9 nM

## IQLQDKFEHL (also called EGFR: SEPT14)
[6]
  IC50: 4260 nM
[7]
  Stability (T1/2 (h)): 0.2 h
[3]
  Stability (T1/2 (h)): 0 h

## LLTSSSREWK (also called β2M, . . ; SIRH)
[2]
  IC50: 1770 nM

## LLGRNSFEVC (also called TP53, R273C)
[4]
  IC50: 2080 nM
[5]
  Stability (T1/2 (h)): 0 h

## QLQDKFEHL (also called EGFR: SEPT14)
[7]
  Stability (T1/2 (h)): 0.6 h
[3]
  Stability (T1/2 (h)): 0 h

## FVMSDTTYK (also called TTK(-1))
[1]
  IC50: 66.9 nM

## SLLNYLREM (also called BTK, C481S)
[3]
  Stability (T1/2 (h)): 0 h

## TTLNSPPLKK (also called β2M, . . ; MPAV)
[2]
  IC50: 14.3 nM

## CTTLNSPPLK (also called β2M, . . ; MPAV)
[2]
  IC50: 63.6 nM

## LSFLSSWDYR (also called C15ORF40(+1))
[2]
  IC50: 101 nM

## MQLMPFGCLL (also called EGFR, T790M)
[3]
  Stability (T1/2 (h)): 0 h

## VLERCPHRPI (also called FGFR3, S249C)
[6]
  IC50: 15300 nM
[7]
  Stability (T1/2 (h)): 0 h
[3]
  Stability (T1/2 (h)): 0 h

## LFVMSDTTYK (also called TTK(-1))
[1]
  IC50: 749 nM

## IMQLMPFGCL (also called EGFR, T790M)
[3]
  Stability (T1/2 (h)): 0 h

## SLKKVPALKK (also called SMAP1(-1))
[1]
  IC50: 9.6 nM

## ALFFFFFETK (also called C15ORF40(+1))
[2]
  IC50: 216 nM

## ALNSEALSV (also called TMPRSS2: ERG)
[4]
  IC50: 14 nM
[5]
  Stability (T1/2 (h)): 9.1 h

## MANGSLLNYL (also called BTK, C481S)
[3]
  Stability (T1/2 (h)): 0 h

## YMCNSSCMGS (also called TP53, G245S)
[4]
  IC50: 81 nM
[5]
  Stability (T1/2 (h)): 0.8 h

## TLNSPPLKK (also called β2M, . . ; MPAV)
[2]
  IC50: 5.4 nM

## SMLTDSLFL (also called VHL, QCIL)
[4]
  IC50: 31 nM
[5]
  Stability (T1/2 (h)): 9.8 h

## GLLAFWDSQV (also called TP53, AAVG)
[4]
  IC50: 10 nM
[5]
  Stability (T1/2 (h)): 14.2 h

## ELFPLIFPA (also called C11orf95: RELA)
[6]
  IC50: 13 nM
[7]
  Stability (T1/2 (h)): 5.1 h
[3]
  Stability (T1/2 (h)): 0 h

## KMRKKYAQK (also called THAP5(-1))
[1]
  IC50: 5.7 nM

## ALSEHCPTT (also called TP53, CSES)
[4]
  IC50: 79 nM
[5]
  Stability (T1/2 (h)): 27.3 h

## KTFEKKGEK (also called TTK(-1))
[1]
  IC50: 32.2 nM

## MANGSLLNY (also called BTK, C481S)
[2]
  IC50: 35.6 nM

## GLVDEQQEV (also called SF3B1, K700E)
[4]
  IC50: 44 nM
[5]
  Stability (T1/2 (h)): 7.4 h

## GMNQRPILT (also called TP53, R248Q)
[4]
  IC50: 3030 nM
[5]
  Stability (T1/2 (h)): 0 h

## GMNWRPILT (also called TP53, R248W)
[4]
  IC50: 1130 nM
[5]
  Stability (T1/2 (h)): 0 h

## AMTTSSSQKN (also called TGFBR2(-1))
[1]
  IC50: 2340 nM

## LTSSSREWK (also called β2M, . . ; SIRH)
[2]
  IC50: 118 nM

## VVPCEPPEV (also called TP53, Y220C)
[5]
  Stability (T1/2 (h)): 0.9 h

## ALNSEALSVV (also called TMPRSS2: ERG)
[5]
  Stability (T1/2 (h)): 2.9 h

## NSFEVCVCA (also called TP53, R273C)
[4]
  IC50: 2200 nM
[5]
  Stability (T1/2 (h)): 0 h

## NSFEVHVCA (also called TP53, R273H)
[4]
  IC50: 503 nM
[5]
  Stability (T1/2 (h)): 0 h
